Literature values as cited in article PMC8544432.
pKd: −log10 of the molar value. Read-outs that look alike come from different tables or passages of the source.

Legend:
PBX1 (Homo sapiens) [1] = biological target: PBX1 (Homo sapiens) (UniProt P40424)
PBX1 (Homo sapiens) [2] = biological target: PBX1 (Homo sapiens) (UniProt P40424); remark: listed apart in the source

Sequence of UniProt P40424 (P40424 whole entry): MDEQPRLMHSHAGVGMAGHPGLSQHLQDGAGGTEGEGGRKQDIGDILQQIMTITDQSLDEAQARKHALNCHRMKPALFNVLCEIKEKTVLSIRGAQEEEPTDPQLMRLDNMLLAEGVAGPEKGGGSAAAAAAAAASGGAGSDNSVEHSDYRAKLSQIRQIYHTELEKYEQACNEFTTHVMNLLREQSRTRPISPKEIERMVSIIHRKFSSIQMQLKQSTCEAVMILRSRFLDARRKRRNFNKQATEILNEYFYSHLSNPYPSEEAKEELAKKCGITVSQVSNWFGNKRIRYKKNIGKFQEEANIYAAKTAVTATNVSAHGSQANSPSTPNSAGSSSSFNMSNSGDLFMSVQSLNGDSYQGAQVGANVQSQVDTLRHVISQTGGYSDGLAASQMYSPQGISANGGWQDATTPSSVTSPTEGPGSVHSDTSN

Substance	pKd (PBX1 (Homo sapiens) [1])	pKd (PBX1 (Homo sapiens) [2])
MEIS1 (from UniProt O00470)	7.10	–
PREP1 (from UniProt P55347)	–	7.74
